{
  "source": "patent US9677045B2",
  "about": "“Microorganisms and methods for production of 4-hydroxybutyrate, 1,4-butanediol and related compounds” (priority 2012, dated 2017)",
  "molecules": {"B1": {"name": "yjgB: E. coli alcohol dehydrogenase yjgB, cloned with a streptavidin tag and purified (protein, UniProt P27250 1-339, looked up)", "Aldehyde reductase Ahr": "MSMIKSYAAKEAGGELEVYEYDPGELRPQDVEVQVDYCGICHSDLSMIDNEWGFSQYPLVAGHEVIGRVVALGSAAQDKGLQVGQRVGIGWTARSCGHCDACISGNQINCEQGAVPTIMNRGGFAEKLRADWQWVIPLPENIDIESAGPLLCGGITVFKPLLMHHITATSRVGVIGIGGLGHIAIKLLHAMGCEVTAFSSNPAKEQEVLAMGADKVVNSRDPQALKALAGQFDLIINTVNVSLDWQPYFEALTYGGNFHTVGAVLTPLSVPAFTLIAGDRSVSGSATGTPYELRKLMRFAARSKVAPTTELFPMSKINDAIQHVRDGKARYRVVLKADF", "modifications": "streptavidin tag"}, "B2": {"name": "PTB: phosphotransbutyrylase from C. acetobutylicum (gene 0020) (protein, UniProt P58255 1-301, looked up)", "Phosphate butyryltransferase": "MIKSFNEIIMKVKSKEMKKVAVAVAQDEPVLEAVRDAKKNGIADAILVGDHDEIVSIALKIGMDVNDFEIVNEPNVKKAALKAVELVSTGKADMVMKGLVNTATFLRSVLNKEVGLRTGKTMSHVAVFETEKFDRLLFLTDVAFNTYPELKEKIDIVNNSVKVAHAIGIENPKVAPICAVEVINPKMPSTLDAAMLSKMSDRGQIKGCVVDGPLALDIALSEEAAHHKGVTGEVAGKADIFLMPNIETGNVMYKTLTYTTDSKNGGILVGTSAPVVLTSRADSHETKMNSIALAALVAGNK"}},
  "key": {"[1]": {"tested_on": "BCKA in Bacillus subtilis", "details": "decarboxylation; cited from earlier work"}, "[2]": {"target": "T1, endogenous alcohol dehydrogenase (yjgB) (Escherichia coli, UniProt P27250)", "T1 sequence (P27250 1-339)": "B1 Aldehyde reductase Ahr", "details": "purified protein, in the presence of NADP+; FIG. 85", "procedure": "The sample was purified while following the backflux activity.\nA fresh sample of 1427 cells from a 2 L LB preparation grown aerobically overnight was lysed using the microfluidizer at 15,000 psi. The sample was then fractionated via ammonium sulfate.\nThe 60% ammonium sulfate pellet was resuspended in a low salt buffer and dialyzed overnight to remove the residual ammonium sulfate. The sample was loaded onto a 5 ml Q-sepharose column (strong anion exchange) and eluted via a slow increasing salt gradient.\nThe peak backflux activity from anion exchange was pooled and concentrated to allow for application to a S200 sephacryl size exclusion column.\nThe peak with the highest backflux activity from the size exclusion column was pooled and loaded on a phenyl sepharose column (hydrophobic interaction column). The ionic strength of the sample was increased to facilitate binding to the resin."}, "[3]": {"target": "T2, phosphotransbutyrylase (PTB) (Clostridium acetobutylicum, UniProt P58255)", "T2 construct": "made in house; host or cells: E. coli, plasmid pZA33-0020-0021, cell extract", "T2 sequence (P58255 1-301)": "B2 Phosphate butyryltransferase", "assay": "PTB enzyme activity, butyryl-CoA to butyryl-phosphate (DTNB)", "assay_type": "biochemical", "details": "extracts of cells with native ptb/bk operon (0020, 0021) in pZA33", "method": "The enzyme activity of PTB is measured in the direction of butyryl-CoA to butyryl-phosphate as described in Cary et al. J. Bacteriol. 170:4613-4618 (1988). It provides inorganic phosphate for the conversion, and follows the increase in free CoA with the reagent 5,5′-dithiobis-(2-nitrobenzoic acid), or DTNB. DTNB rapidly reacts with thiol groups such as free CoA to release the yellow-colored 2-nitro-5-mercaptobenzoic acid (TNB), which absorbs at 412 nm with a molar extinction coefficient of 14,140 M cm^−1. The assay buffer contained 150 mM potassium phosphate at pH 7.4, 0.1 mM DTNB, and 0.2 mM butyryl-CoA, and the reaction was started by addition of 2 to 50 μL cell extract. The enzyme activity of BK is measured in the direction of butyrate to butyryl-phosphate formation at the expense of ATP. The procedure is similar to the assay for acetate kinase previously described Rose et al., J. Biol. Chem. 211:737-756 (1954). […] This assay links conversion of ATP to ADP by acetate kinase to the linked conversion of ADP and phosphoenolpyruvate (PEP) to ATP and pyruvate by pyruvate kinase, followed by the conversion of pyruvate and NADH to lactate and NAD+ by lactate dehydrogenase. […] The reaction was started by adding 2 to 50 μL cell extract, and the reaction was monitored based on the decrease in absorbance at 340 nm indicating NADH oxidation. […]"}},
  "data": [
    {"molecule": "O=C(O)CCC(=O)C(=O)O", "note": "[2-Oxoglutarate]", "values": [
      {"measurement": "activity relative to other branched-chain substrates", "setting": "[1]", "value": 5, "unit": "%"}
    ]},
    {"molecule": "B1", "values": [
      {"measurement": "activity with BDO as a substrate", "setting": "[2]", "value": "robust activity was confirmed"}
    ]},
    {"molecule": "B2", "values": [
      {"measurement": "specific activity of PTB", "setting": "[3]", "value": "approximately 5 U/mg"}
    ]}
  ]
}
